Test results from patent US20210163598A1 (BEIJING PROTEOME RESEARCH CENTER, published 2021).

Tests used:
[1] = molecular target: T1, BTN3A1 overexpressed on BT474 cells (BT474-BTN3A1) (UniProt O00481 30-513, limits assumed); assay: flow cytometric adhesion assay, human LSECtin detected with antibody CCB059
T1 construct: whole, on cells; Expressed from pIRES2-EGFP-BTN3A1 in BT474 cells
Source text: (§1) 3. Each cell in the step 2 was obtained by digestion and collection, and then was adhered to human LSECtin protein (R&D, 2947-CL) and mouse LSECtin-Fc protein, respectively, and the human LSECtin adhesion rate was detected by mouse anti-human LSECtin antibody CCB059. […] mouse LSECtin adhesion rate was detected by anti-IgG (Biolegend, 405307), and the adhesion ratio was detected by flow cytometry. Details of adhesion assay have been published in the method of “Tang L, Yang J, Tang X, et al. The DC-SIGN family member LSECtin is a novel ligand of CD44 on activated T cells[J], European journal of immunology. 2010, 40(4): 1185-1191”.

[2] = molecular target: T1, BTN3A1 overexpressed on BT474 cells …; assay: flow cytometric adhesion assay, murine LSECtin-Fc detected with anti-IgG
Source text: as §1

[3] = molecular target: BTN3A2 overexpressed on BT474 cells (BT474-BTN3A2) (Homo sapiens (Human), UniProt P78410 30-334); assay: as above
Chain of BTN3A2 overexpressed on BT474 cells (BT474-BTN3A2) (P78410 30-334 limits assumed): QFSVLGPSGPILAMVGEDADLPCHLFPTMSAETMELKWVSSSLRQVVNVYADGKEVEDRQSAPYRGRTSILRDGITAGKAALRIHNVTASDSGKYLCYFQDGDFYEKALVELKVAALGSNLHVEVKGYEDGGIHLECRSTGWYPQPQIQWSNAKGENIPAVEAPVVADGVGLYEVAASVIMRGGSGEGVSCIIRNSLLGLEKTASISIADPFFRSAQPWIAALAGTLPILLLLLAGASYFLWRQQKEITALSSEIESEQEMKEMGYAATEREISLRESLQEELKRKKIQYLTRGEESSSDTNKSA
Source text: as §1

T1 sequence (O00481 30-513 limits assumed): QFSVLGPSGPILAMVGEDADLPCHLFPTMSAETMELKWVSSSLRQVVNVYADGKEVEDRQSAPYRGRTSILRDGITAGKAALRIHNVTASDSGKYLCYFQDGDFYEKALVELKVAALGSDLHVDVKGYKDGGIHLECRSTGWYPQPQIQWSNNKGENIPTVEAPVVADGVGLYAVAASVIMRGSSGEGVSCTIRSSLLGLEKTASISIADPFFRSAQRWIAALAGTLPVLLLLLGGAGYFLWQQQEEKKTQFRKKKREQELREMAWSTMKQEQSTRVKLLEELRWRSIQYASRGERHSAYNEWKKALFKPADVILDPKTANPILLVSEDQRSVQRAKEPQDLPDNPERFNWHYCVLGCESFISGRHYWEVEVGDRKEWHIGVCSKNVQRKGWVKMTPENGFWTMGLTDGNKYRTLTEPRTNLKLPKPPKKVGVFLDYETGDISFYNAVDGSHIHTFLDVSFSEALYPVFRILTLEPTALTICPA

B1: human LSECtin protein (R&D, 2947-CL) (ligand)
chain: SKASTERAALLDGHDLLRTNASKQTAALGALKEEVGDCHSCCSGTQAQLQTTRAELGEAQAKLMEQESALRELRERVTQGLAEAGRGREDVRTELFRALEAVRLQNNSCEPCPTSWLSFEGSCYFFSVPKTTWAAAQDHCADASAHLVIVGGLDEQGFLTRNTRGRGYWLGLRAVRHLGKVQGYQWVDGVSLSFSHWNQGEPNDAWGRENCVMMLHTGLWNDAPCDSEKDGWICEKRHNC
notes: Bought recombinant protein (R&D 2947-CL); also called human recombinant protein LSECtin; Liver Sinusoidal Endothelial Cells lectin
- binding result [1]: no binding

B2: mouse LSECtin-Fc protein (Fc fusion, UniProt Q8BNX1 52-294, looked up)
chain: LLSSASSKLRVLLSHQDLLRTNASEQKMTLSSLKDDIGACRNCCSVTKAQLQTTLAEFKDIQAKLMEQESILKELQERVTQDLAKASRDRENIRSELFQALEAVKRQNSSCEQCPPSWLPFQGSCYYFSETQATWDTAQSYCGGQGAHLVIVRGLNEQGFLSQHTRGRGYWLGLRAVRHLNKIQGYRWVDGASLNFSHWNSGEPNDSRGHEDCIMMLHSGLWNDAPCTNERDGWICEKRSSCY
notes: also called murine LSECtin-Fc; murine LSECtin; not shown: Fc part
- binding result [2]: no binding
- binding result [3]: no binding
